B1: Anti-CT-4B11mut1单克隆抗体 (antibody, mouse IgG2a, kappa, V domains shown)
VH: QVQVRQSGPGLVQPSQSLSITCTVSGFSLRSHGVNWVRQSPRKGLEWLGVIWKGGSTEYSAAFMSRLSISKDNSKNQIFFKMNSLQADDTAIYYCAKNNDYGRFDYWGQGTLVTVSA
VL: EVVLTQSPTTLAASPGETITITCRVSSSISSSYLHWYQQKPGFSPKLLIYRTSNLASGVPARFSGSGSGTSYSLTIGTMEADDVATYYCQQGSSLPRTFGGGTTLEIKR
B2: Anti-CT-4B11mut2单克隆抗体 (antibody, part only; not given: light chain, part only)
heavy: QVQVRQSGPGLVQPSQSLSITCTVSGFSLRSHGVNWVRQSPRKGLEWLGVIWKGGSTEYSAAFMSRLSISKDNSKNQIFFKMNSLQADDTAIYYCAKNNDYGRFDYWGQGTLVTVSAAKTTAPSVYPLAPVCGDTTGSSVTLGCLVKGYFPEPVTLTWNSGSLSSGVHTFPAVLQSDLYTLSSSVTVTSSTWPSQSITCNVAHPASSTKVDKKIEPRGPTIKPCPPCKCPAPNLLGGPSVFIFPPKIKDVLMISLSPIVTCVVVDVSEDDPDVQISWFVNNVEVHTAQTQTHREDYNSTLRVVSALPIQHQDWMSGKEFKCKVNNKDLPAPIERTISKPKGSVRAPQVYVLPPPEEEMTKKQVTLTCMVTDFMPEDIYVEWTNNGKTELNYKNTEPVLDSDGSYFMYSKLRVEKKNWVERNSYSCSVVHEGLHNHHTTKSFSRTPGK

Tests used:
[1] = target: 沙眼衣原体培养物(购自菲鹏生物) (Chlamydia trachomatis); assay: indirect ELISA, plate coated with C. trachomatis culture diluted 100x; antibody at 5 ng/ml
[2] = target: 沙眼衣原体培养物(购自菲鹏生物) (Chlamydia trachomatis); assay: indirect ELISA, plate coated with C. trachomatis culture diluted 100x; antibody at 10 ng/ml
[3] = target: 沙眼衣原体培养物(购自菲鹏生物) (Chlamydia trachomatis); assay: indirect ELISA, plate coated with C. trachomatis culture diluted 100x; antibody at 20 ng/ml
[4] = target: 沙眼衣原体培养物(购自菲鹏生物) (Chlamydia trachomatis); assay: indirect ELISA, plate coated with C. trachomatis culture diluted 100x; antibody at 40 ng/ml
[5] = target: 沙眼衣原体培养物(购自菲鹏生物) (Chlamydia trachomatis); assay: indirect ELISA, plate coated with C. trachomatis culture diluted 100x; antibody at 2.5 ng/ml
[6] = target: 沙眼衣原体培养物(购自菲鹏生物) (Chlamydia trachomatis); assay: indirect ELISA, plate coated with C. trachomatis culture diluted 100x; antibody at 0 ng/ml (blank)

| Molecule | OD (450nm, 参考630nm) [1] | OD (450nm, 参考630nm) [2] | OD (450nm, 参考630nm) [3] | OD (450nm, 参考630nm) [4] | OD (450nm, 参考630nm) [5] | OD (450nm, 参考630nm) [6] |
| --- | --- | --- | --- | --- | --- | --- |
| 对照 (antibody) | 0.503 OD | 0.825 OD | 1.2 OD | 1.79 OD | 0.291 OD | 0.025 OD |
| B1 | 0.811 OD | 1.14 OD | 1.65 OD | 1.9 OD | 0.462 OD | 0.043 OD |
| B2 | 0.959 OD | 1.33 OD | 1.71 OD | 1.92 OD | 0.507 OD | 0.026 OD |

Source: patent CN116854812A
